Patent US20200157212A1 (Pfizer, published 2020)

T1: Human ROBO2 overexpressed on HEK293 cells (human, UniProt Q9HCK4 22-1378)
T1 construct: also called ROBO2 cells; native ROBO2
T1 sequence: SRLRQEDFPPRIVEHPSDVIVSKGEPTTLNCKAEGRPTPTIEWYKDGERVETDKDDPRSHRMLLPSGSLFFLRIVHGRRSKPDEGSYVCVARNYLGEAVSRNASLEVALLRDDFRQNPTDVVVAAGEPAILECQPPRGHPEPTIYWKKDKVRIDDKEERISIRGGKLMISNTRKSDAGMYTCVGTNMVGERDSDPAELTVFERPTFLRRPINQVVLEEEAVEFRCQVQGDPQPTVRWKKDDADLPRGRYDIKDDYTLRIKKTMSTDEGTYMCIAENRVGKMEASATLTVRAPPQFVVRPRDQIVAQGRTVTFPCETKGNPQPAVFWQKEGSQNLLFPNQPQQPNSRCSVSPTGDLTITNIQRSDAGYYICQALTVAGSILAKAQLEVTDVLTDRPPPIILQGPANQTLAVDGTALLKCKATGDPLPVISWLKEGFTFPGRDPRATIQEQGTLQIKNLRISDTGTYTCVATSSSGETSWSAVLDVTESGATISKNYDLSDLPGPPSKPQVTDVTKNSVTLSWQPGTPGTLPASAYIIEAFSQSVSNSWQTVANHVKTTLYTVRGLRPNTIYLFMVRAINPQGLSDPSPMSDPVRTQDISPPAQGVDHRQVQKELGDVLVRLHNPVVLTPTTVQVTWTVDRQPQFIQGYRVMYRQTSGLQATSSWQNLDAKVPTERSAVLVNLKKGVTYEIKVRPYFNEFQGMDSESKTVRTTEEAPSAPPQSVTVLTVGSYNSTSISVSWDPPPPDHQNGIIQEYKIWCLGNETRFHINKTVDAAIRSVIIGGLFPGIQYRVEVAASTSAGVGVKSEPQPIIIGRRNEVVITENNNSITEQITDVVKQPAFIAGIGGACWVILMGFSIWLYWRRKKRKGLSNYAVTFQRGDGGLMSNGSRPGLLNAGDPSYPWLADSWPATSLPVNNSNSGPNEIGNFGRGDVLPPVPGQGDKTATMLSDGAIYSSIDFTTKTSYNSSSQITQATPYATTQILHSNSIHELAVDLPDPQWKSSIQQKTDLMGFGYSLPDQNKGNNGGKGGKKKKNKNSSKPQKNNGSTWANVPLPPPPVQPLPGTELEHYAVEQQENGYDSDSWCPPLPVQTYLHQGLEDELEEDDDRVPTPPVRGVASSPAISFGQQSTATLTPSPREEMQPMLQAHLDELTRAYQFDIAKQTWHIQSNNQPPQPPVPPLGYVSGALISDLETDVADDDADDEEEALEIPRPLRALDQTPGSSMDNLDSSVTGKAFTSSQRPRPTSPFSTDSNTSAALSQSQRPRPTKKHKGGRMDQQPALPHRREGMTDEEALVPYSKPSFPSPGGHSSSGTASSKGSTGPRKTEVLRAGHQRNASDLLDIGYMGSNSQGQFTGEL

T2: Human ROBO1 Ig1-Ig2 (human, UniProt Q9Y6N7 68-257)
T2 construct: recombinant protein; also called ROBO1 Ig1-2; Human ROBO1 Ig 1,2
T2 sequence: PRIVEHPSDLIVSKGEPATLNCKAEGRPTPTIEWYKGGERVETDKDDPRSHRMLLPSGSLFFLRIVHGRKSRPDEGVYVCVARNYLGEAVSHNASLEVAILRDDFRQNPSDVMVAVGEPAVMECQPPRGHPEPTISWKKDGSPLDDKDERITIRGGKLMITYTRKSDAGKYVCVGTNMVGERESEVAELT

T3: Terbium (Tb) labeled-SNAP tagged ROBO2 expressed on HEK293 cells (Homo sapiens (Human), UniProt Q9HCK4 22-1378, terbium label on the SNAP tag)
T3 construct: also called Tb-labeled ROBO2 cells; ROBO2 expressing cells; not shown: SNAP tag
T3 sequence: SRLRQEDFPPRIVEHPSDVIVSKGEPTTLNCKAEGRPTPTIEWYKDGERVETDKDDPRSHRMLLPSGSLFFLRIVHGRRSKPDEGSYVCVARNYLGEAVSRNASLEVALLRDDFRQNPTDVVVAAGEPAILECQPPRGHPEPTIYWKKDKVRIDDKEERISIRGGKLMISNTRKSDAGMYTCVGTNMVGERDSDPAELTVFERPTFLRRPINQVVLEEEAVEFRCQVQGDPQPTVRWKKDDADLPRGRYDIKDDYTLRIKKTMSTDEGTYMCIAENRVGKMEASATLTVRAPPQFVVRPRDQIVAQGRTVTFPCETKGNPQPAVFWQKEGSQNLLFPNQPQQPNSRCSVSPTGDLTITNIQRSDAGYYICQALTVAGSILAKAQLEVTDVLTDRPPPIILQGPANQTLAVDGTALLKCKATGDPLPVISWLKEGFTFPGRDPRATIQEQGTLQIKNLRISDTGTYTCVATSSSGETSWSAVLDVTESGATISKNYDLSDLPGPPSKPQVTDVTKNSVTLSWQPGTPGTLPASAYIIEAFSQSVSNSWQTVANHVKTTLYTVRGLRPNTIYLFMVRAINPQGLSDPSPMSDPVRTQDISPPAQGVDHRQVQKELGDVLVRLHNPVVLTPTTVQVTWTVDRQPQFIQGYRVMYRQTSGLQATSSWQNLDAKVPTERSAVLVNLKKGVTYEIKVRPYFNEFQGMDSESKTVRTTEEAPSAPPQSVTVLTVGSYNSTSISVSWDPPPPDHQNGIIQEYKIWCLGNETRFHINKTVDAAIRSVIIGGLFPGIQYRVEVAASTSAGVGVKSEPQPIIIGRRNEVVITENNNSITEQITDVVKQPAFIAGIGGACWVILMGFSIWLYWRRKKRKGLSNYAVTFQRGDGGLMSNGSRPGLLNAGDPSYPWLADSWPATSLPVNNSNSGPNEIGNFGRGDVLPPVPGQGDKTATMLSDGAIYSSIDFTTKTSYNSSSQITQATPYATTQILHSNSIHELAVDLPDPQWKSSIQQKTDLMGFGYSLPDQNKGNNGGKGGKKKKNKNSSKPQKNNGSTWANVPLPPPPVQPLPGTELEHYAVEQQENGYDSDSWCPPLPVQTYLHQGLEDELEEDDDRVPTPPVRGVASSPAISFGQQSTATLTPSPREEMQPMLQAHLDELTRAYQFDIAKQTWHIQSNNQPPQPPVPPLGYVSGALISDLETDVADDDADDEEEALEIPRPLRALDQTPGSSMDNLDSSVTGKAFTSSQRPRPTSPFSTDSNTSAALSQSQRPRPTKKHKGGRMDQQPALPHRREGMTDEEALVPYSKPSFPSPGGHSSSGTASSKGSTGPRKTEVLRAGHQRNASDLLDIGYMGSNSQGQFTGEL


Key:
[1] = biological target: T1, Human ROBO2 overexpressed on HEK293 …; assay: flow cytometry, Geo MFI ROBO2/ROBO1 HEK293 cells, 0.1 µg/ml
[2] = biological target: T4, Human ROBO1 RSK mutant overexpressed on HEK293 cells (human, UniProt Q9Y6N7 26-1651); assay: flow cytometry, Geo MFI ROBO1-RSK/ROBO2-KSR HEK293 cells, 0.1 µg/ml
T4 construct: K137R and R139K already in the entry; also called ROBO1-RSK cells
T4 sequence (Q9Y6N7 other isoform, or with tags, fused parts or gaps mutant limits assumed): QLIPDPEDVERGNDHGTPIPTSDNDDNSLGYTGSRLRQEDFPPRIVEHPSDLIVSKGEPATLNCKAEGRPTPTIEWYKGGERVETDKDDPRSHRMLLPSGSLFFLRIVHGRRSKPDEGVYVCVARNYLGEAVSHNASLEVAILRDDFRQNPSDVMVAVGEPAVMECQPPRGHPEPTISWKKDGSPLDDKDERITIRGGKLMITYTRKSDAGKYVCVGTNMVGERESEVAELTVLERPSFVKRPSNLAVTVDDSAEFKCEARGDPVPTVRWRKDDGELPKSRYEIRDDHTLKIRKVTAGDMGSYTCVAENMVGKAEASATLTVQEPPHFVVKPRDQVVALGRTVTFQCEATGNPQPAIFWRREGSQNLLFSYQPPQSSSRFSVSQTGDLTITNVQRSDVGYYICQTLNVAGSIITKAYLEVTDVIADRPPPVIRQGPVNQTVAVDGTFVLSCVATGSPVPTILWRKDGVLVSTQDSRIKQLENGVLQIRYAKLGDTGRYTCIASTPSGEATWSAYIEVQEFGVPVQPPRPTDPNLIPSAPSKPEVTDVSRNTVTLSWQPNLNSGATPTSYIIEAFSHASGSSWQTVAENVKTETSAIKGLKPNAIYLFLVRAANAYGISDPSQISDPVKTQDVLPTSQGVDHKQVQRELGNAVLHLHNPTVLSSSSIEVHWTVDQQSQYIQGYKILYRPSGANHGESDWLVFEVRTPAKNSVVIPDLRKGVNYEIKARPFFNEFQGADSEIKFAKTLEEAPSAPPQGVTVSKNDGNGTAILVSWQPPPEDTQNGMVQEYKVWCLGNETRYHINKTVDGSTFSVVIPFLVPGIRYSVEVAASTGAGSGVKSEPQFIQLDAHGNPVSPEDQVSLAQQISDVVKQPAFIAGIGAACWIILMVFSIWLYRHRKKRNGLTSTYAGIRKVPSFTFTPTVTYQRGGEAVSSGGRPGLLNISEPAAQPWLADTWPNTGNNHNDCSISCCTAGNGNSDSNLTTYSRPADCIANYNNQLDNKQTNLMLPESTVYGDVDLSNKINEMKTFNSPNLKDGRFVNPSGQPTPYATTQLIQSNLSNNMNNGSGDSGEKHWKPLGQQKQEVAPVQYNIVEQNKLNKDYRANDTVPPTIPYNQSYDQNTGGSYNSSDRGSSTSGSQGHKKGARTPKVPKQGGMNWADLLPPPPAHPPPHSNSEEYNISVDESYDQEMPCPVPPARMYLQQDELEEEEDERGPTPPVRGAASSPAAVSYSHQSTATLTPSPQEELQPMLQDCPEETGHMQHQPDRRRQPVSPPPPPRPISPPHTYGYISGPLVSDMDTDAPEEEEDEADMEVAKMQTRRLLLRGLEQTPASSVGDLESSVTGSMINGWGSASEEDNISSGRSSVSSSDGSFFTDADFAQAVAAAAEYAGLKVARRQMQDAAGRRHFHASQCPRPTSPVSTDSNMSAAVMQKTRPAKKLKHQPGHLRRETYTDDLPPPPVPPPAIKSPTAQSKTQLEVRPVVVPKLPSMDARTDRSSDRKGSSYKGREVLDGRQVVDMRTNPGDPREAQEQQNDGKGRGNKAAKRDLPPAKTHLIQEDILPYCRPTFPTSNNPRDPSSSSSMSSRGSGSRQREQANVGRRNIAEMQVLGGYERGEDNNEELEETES

[3] = biological target: T2, Human ROBO1 Ig1-Ig2; assay: Octet Red BLI, Abcs35 captured on AHC sensors, ROBO proteins in solution
Description: Octet Red AHC (Anti-Human IgG FC) Sensors were loaded with Abcs35. The loaded sensors were then exposed to Human ROBO2 Ig1-2, Rat ROBO2 Ig 1-2, Human ROBO2 Ig1-2 with the RSK mutated to KSR as in ROBO1, or ROBO1 Ig1-2 then the sensors were moved to PBS only, lacking any ROBO1 or 2 proteins. The arrows indicate curves for each of the ROBO proteins tested.
Based upon the crystal structure described above, the following experiments were done to confirm the epitope specificity of 93H2 and/or affinity matured clones Abcs35. Using Octet Red, epitope specificity was confirmed biochemically. Abcs35, at 10 μg/ml, was captured on AHC sensors for 60 seconds. Recombinant human ROBO2 Ig1-Ig2, rat […], human ROBO2 containing the ROBO1 KSR sequence (ROBO2-KSR mutant), and human ROBO1 Ig1-Ig2, prepared at 100 nM, were used to interact with captured Abcs35. Association time was 100 seconds then dissociation was followed for 20 seconds. Abcs35 specifically bound human and rat ROBO2 but not human ROBO1 or the ROBO2-KSR mutant protein (FIG. 2).

[4] = biological target: T3, Terbium (Tb) labeled-SNAP tagged ROBO2 …; assay: HTRF competition on ROBO2 expressing cells; blocked ligand SLIT2-N; 11 points up to 10^2 nM, another dilution series than that of Table 2

Row | Binder | Fold Selectivity for ROBO2/ROBO1 [1] [fold] | Fold Selectivity for RSK/KSR [2] [fold] | binding result [3] | IC50 (read off the curve) [4] [nM]
1 | 93H2 (antibody, human IgG1, kappa, V domains shown, also called parental 93H2; 93H2 mAb) VH: EVQLVQSGAEVKKPGASVKVSCKASGYTFTGYYMHWVRQAPGQGLEWMGWINPNSGATNFPQKFQGRVTMTRDTSITTAYMDLSRLRSDDTAVYYCARESGDDAFDIWGQGTMVTVSS VL: not shown | > 100 | > 100 |  | 
2 | Abcs35 (antibody, human IgG1, kappa, fully human IgG1; VH of Ab96 with VL of Ab123) heavy: EVQLVQSGAEVKKPGASVKVSCKASGYTFTGYYMHWVRQAPGQGLEWMGWINPKNGDTEFPQKFQGRVTMTRDTSITTAYMDLSRLRSDDTAVYYCARESGDDAFDIWGQGTMVTVSSASTKGPSVFPLAPSSKSTSGGTAALGCLVKDYFPEPVTVSWNSGALTSGVHTFPAVLQSSGLYSLSSVVTVPSSSLGTQTYICNVNHKPSNTKVDKKVEPKSCDKTHTCPPCPAPEAAGAPSVFLFPPKPKDTLMISRTPEVTCVVVDVSHEDPEVKFNWYVDGVEVHNAKTKPREEQYNSTYRVVSVLTVLHQDWLNGKEYKCKVSNKALPAPIEKTISKAKGQPREPQVYTLPPSREEMTKNQVSLTCLVKGFYPSDIAVEWESNGQPENNYKTTPPVLDSDGSFFLYSKLTVDKSRWQQGNVFSCSVMHEALHNHYTQKSLSLSPGK light: DIVMTQSPSSLSASVGDRVTITCRASQSISSYLNWYQQKPGKAPKLLIYAASSLQSGVPSRFSGSGSGTDFTLTISSLQPEDFATYYCQQSVGLFFGGGTKVEIKRTVAAPSVFIFPPSDEQLKSGTASVVCLLNNFYPREAKVQWKVDNALQSGNSQESVTEQDSKDSTYSLSSTLTLSKADYEKHKVYACEVTHQGLSSPVTKSFNRGEC |  |  | no binding | ~0.05
